Tests used:
Format in all cases: physicochemical
[1] = HPLC-assay for in-use stability after reconstitution with 4.2% sodium hydrogen carbonate solution (Example 2, peptides SEQ ID NO 1-10)
Procedure: Resolubilization procedure: For clinical trials the above described formulation is dissolved in 700 μl sodium hydrogen carbonate (4.2%). Remove plastic cap from one vial. Unpack and remove sodium hydrogen carbonate (4.2%) from the refrigerator at least 30 min before resolubilization to bring them up to room temperature before injection. Prepare syringe and needle for reconstitution. Use aseptic technique to take 700 μL of diluent for reconstitution of the lyophilisate. To dissolve the lyophilisate, the vial and the diluent shall be shaken vigorously for 1 minute, check whether solution is clear, otherwise continue shaking for another minute until the solution is clear. 10 to 30 minutes after GM-CSF injection, use a new syringe to administer 500 μL reconstituted formulation i.d. at the same site. Administration has to occur within 1 h after reconstitution. Dissolved lyophilisate may be stored aseptically at room temperature for up to 1 hour following reconstitution.
However, a decrease of two specific peptides, i.e. IMA-CCN-001 and IMA-RGS-001 took place (see Table 6). As these peptides contain a cysteine residue, time-depending dimerization takes place.
(§1) Identity, purity and peptide content are determined by analytical RP-HPLC chromatography. Detection wavelength was 220 nm.

[2] = HPLC-assay for in-use stability after reconstitution with 4.2% sodium hydrogen carbonate solution (Example 3, peptides SEQ ID NO 11-23)
Procedure: For clinical trials the above described formulation is dissolved in 700 μl sodium hydrogen carbonate (4.2%). To dissolve the lyophilisate, the vial and the diluent shall be shaken vigorously for 1 minute, check whether solution is clear, otherwise continue shaking for another minute until the solution is clear. Administration of 500 μL of the solution has to occur within 1 h after reconstitution. Dissolved lyophilisate may be stored aseptically at room temperature for up to 1 hour following reconstitution.
as §1

[3] = HPLC-assay for stability of peptides in lyophilised formulation on storage for 3 months (Example 4); conditions: for stability of peptides in formulation, 1 M: 1 month; for stability of peptides in formulation, 2 M: 2 months; for stability of peptides in formulation, 3 M: 3 months
Procedure: as §1

[4] = +mannitol/lutrol, 1 h after reconstitution
[5] = +mannitol/lutrol, 2 h after reconstitution
[6] = +mannitol/lutrol, 3 h after reconstitution
[7] = +mannitol/lutrol, 4 h after reconstitution
[8] = +mannitol/lutrol, 5 h after reconstitution
[9] = +mannitol/lutrol, 6 h after reconstitution
[10] = +mannitol/lutrol, Initial (starting value set to 100%)
[11] = no excipients, 1 h after reconstitution
[12] = no excipients, 2 h after reconstitution
[13] = no excipients, 3 h after reconstitution
[14] = no excipients, Initial (starting value set to 100%)

Sequence | in-use stability, peptide by HPLC-assay [1, 4] | in-use stability, peptide by HPLC-assay [1, 5] | in-use stability, peptide by HPLC-assay [1, 6] | in-use stability, peptide by HPLC-assay [1, 7] | in-use stability, peptide by HPLC-assay [1, 8] | in-use stability, peptide by HPLC-assay [1, 9] | in-use stability, peptide by HPLC-assay [1, 10] | in-use stability, peptide by HPLC-assay [1, 11] | in-use stability, peptide by HPLC-assay [1, 12] | in-use stability, peptide by HPLC-assay [1, 13] | in-use stability, peptide by HPLC-assay [1, 14] | further results
SVFAGVVGV (listed as Homo sapiens) [GUC-001, GUCY1A3 tumour-associated peptide] | 99.7% | 99.5% | 100.6% | 100.8% | 99.7% | 101.6% | 100.0% | 100.0% | 100.0% | 98.6% | 100.0% | 
ALADGVQKV (listed as Homo sapiens) [APO-001, Apolipoprotein L1 tumour-associated peptide] | 99.8% | 99.8% | 100.7% | 100.9% | 99.6% | 101.5% | 100.0% | 100.0% | 97.4% | 97.4% | 100.0% | 
AIIDGVESV (listed as Homo sapiens) [PTP-003, Protein tyrosine phosphatase, receptor-type, Z polypeptide 1 peptide] |  |  |  |  |  |  |  |  |  |  |  | in-use stability, Peptide [%] ([2]; +Mannitol/Lutrol, 2h): 100.3%; in-use stability, Peptide [%] ([2]; +Mannitol/Lutrol, 4h): 100.5%; in-use stability, Peptide [%] ([2]; +Mannitol/Lutrol, 6h): 100.1%; in-use stability, Peptide [%] ([2]; +Mannitol/Lutrol, Initial): 100.0%; in-use stability, Peptide [%] ([2]; no excipients, 2h): 100.4%; in-use stability, Peptide [%] ([2]; no excipients, 4h): 100.9%; in-use stability, Peptide [%] ([2]; no excipients, 6h): 96.1%; in-use stability, Peptide [%] ([2]; no excipients, Initial): 100.0%; stability of peptides in formulation, 1 M ([3]; +5° C. +/- 3° C.): 99.07 % of Initial; stability of peptides in formulation, 2 M ([3]; +5° C. +/- 3° C.): 97.95 % of Initial; stability of peptides in formulation, 3 M ([3]; +5° C. +/- 3° C.): 98.68 % of Initial; stability of peptides in formulation, INITIAL ([3]; +5° C. +/- 3° C.): 100.0%; stability of peptides in formulation, 1 M ([3]; +25° C. +/- 2° C.): 98.29 % of Initial; stability of peptides in formulation, 2 M ([3]; +25° C. +/- 2° C.): 97.11 % of Initial; stability of peptides in formulation, 3 M ([3]; +25° C. +/- 2° C.): 98.29 % of Initial; stability of peptides in formulation, INITIAL ([3]; +25° C. +/- 2° C.): 100.0%; stability of peptides in formulation, 1 M ([3]; -20° C. +/- 5° C.): 99.11 % of Initial; stability of peptides in formulation, 2 M ([3]; -20° C. +/- 5° C.): 97.48 % of Initial; stability of peptides in formulation, 3 M ([3]; -20° C. +/- 5° C.): 98.57 % of Initial; stability of peptides in formulation, INITIAL ([3]; -20° C. +/- 5° C.): 100.0%
YVDPVITSI (listed as Homo sapiens) [MET-001, c-met proto-oncogene tumour-associated peptide] | 99.8% | 99.8% | 101.0% | 101.1% | 99.8% | 101.7% | 100.0% | 100.0% | 99.2% | 96.7% | 100.0% | 
TFSYVDPVITSISPKYG (listed as Homo sapiens) [MET-005, Met proto-oncogene peptide] |  |  |  |  |  |  |  |  |  |  |  | in-use stability, Peptide [%] ([2]; +Mannitol/Lutrol, 2h): 100.5%; in-use stability, Peptide [%] ([2]; +Mannitol/Lutrol, 4h): 100.7%; in-use stability, Peptide [%] ([2]; +Mannitol/Lutrol, 6h): 100.4%; in-use stability, Peptide [%] ([2]; +Mannitol/Lutrol, Initial): 100.0%; in-use stability, Peptide [%] ([2]; no excipients, 2h): 100.3%; in-use stability, Peptide [%] ([2]; no excipients, 4h): 100.7%; in-use stability, Peptide [%] ([2]; no excipients, 6h): 96.0%; in-use stability, Peptide [%] ([2]; no excipients, Initial): 100.0%; stability of peptides in formulation, 1 M ([3]; +5° C. +/- 3° C.): 99.06 % of Initial; stability of peptides in formulation, 2 M ([3]; +5° C. +/- 3° C.): 97.92 % of Initial; stability of peptides in formulation, 3 M ([3]; +5° C. +/- 3° C.): 98.59 % of Initial; stability of peptides in formulation, INITIAL ([3]; +5° C. +/- 3° C.): 100.0%; stability of peptides in formulation, 1 M ([3]; +25° C. +/- 2° C.): 97.49 % of Initial; stability of peptides in formulation, 2 M ([3]; +25° C. +/- 2° C.): 96.13 % of Initial; stability of peptides in formulation, 3 M ([3]; +25° C. +/- 2° C.): 97.21 % of Initial; stability of peptides in formulation, INITIAL ([3]; +25° C. +/- 2° C.): 100.0%; stability of peptides in formulation, 1 M ([3]; -20° C. +/- 5° C.): 99.14 % of Initial; stability of peptides in formulation, 2 M ([3]; -20° C. +/- 5° C.): 97.54 % of Initial; stability of peptides in formulation, 3 M ([3]; -20° C. +/- 5° C.): 99.00 % of Initial; stability of peptides in formulation, INITIAL ([3]; -20° C. +/- 5° C.): 100.0%
VMAGDIYSV (listed as Homo sapiens) [ADF-002, Adipophilin tumour-associated peptide] | 99.9% | 100.0% | 101.1% | 101.2% | 99.9% | 101.9% | 100.0% | 100.9% | 100.0% | 97.2% | 100.0% | 
SQDDIKGIQKLYGKRS (listed as Homo sapiens) [MMP-001, Matrix metalloproteinase 7 tumour-associated peptide] | 99.5% | 99.3% | 100.2% | 100.4% | 98.9% | 100.9% | 100.0% | 98.6% | 97.1% | 95.7% | 100.0% | 
ALFDGDPHL (listed as Homo sapiens) [K67-001, KIAA0367 tumour-associated peptide] | 99.8% | 100.4% | 101.6% | 101.8% | 100.6% | 102.5% | 100.0% | 100.8% | 99.2% | 97.5% | 100.0% | 
LLGATCMFV (listed as Homo sapiens) [CCN-001, Cyclin D1 tumour-associated peptide] | 95.6% | 92.2% | 91.3% | 89.2% | 86.1% | 85.9% | 100.0% | 82.8% | 72.1% | 63.3% | 100.0% | stability after reconstitution (in words) ([1]; Example 2 formulation, 4.2% sodium hydrogen carbonate): decrease

From patent US9289478B2, “Formulations of tumour-associated peptides binding to human leukocyte antigen (HLA) class I or class II molecules for vaccine” (IMMATICS BIOTECHNOLOGIES GMBH, priority 2008, dated 2016)
